This note sets out measurements from US20260217789A1 (GLYCOERA, published 2026).

Assay [1] has as its target T1, PLA2R glycoengineered polypeptide (human, UniProt Q13018 21-505, N-glycans, mainly A2GalNAc2 (83.6% of total N-glycan); six N-glycosylation sites: N93, N315, N433, N454, N473 and one in the C-terminal glycotag; occupancy per Table 2: N93 >99%, N315 <10%, N433 <1%, …).
T1 construct: Secreted from glycoengineered Leishmania tarentolae (cell line StCGP6199) and purified by IMAC; also called exemplary PLA2R glycoengineered polypeptide; glycoengineered PLA2R polypeptide
Put plainly: SPR (Biacore 8K), single cycle kinetics, immobilized ligand ASGPR1 1ug/mL (biotinylated, streptavidin capture), heterogeneous binding model; column ka1 (first component). The text has this: (§1) Methods: Surface plasmon resonance (SPR) was used to measure binding kinetics (i.e., ka, kd, KD, equilibrium) of a glycoengineered PLA2R polypeptide. SPR data was collected with a Biacore 8K instrument to characterize interactions between the PLA2R glycoengineered polypeptide and surrogate anti-PLA2R antibody 12-6-5 in multiple assay formats. The surrogate antibody was either captured using the Fc tag or covalently immobilized on the sensor surface, and the PLA2R glycoengineered polypeptide construct was injected in increasing concentrations in a single cycle kinetics experiment. The contact time was 300 s and the dissociation time was 1200 s. The data was fit to a 1:1 binding model with the global fitting software provided by Cytivia. For ASGPR1 binding experiments, biotinylated recombinant human ASGPR1 (Acro Biosystems) was immobilized using streptavidin capture, and increasing concentrations of the PLA2R glycoengineered polypeptide were injected in a single cycle kinetics experiment. ASGPR1 assays included 2 mM CaCl₂) in the running buffer. The data were fit using a heterogeneous binding model using the Cytvia provided software.

For assay [2], the target named is T1, PLA2R glycoengineered polypeptide. Put plainly: SPR (Biacore 8K), single cycle kinetics, immobilized ligand ASGPR1 1ug/mL (biotinylated, streptavidin capture), heterogeneous binding model; column KD1 (first component).
Excerpt: as §1
A general note: Surface plasmon resonance follows binding to a sensor surface in real time, without labels.

For assay [3] the target is unchanged. The experiment in a line: SPR, Biacore 8K, single cycle kinetics, heterogeneous binding model; biotinylated ASGPR1 on streptavidin, 2 mM CaCl2 (FIG. 1C).
Excerpt: as §1

Assay [4] has the same target. Put plainly: SPR (Biacore 8K), single cycle kinetics, immobilized ligand ASGPR1 1ug/mL (biotinylated, streptavidin capture), heterogeneous binding model; column kd1 (first component).
Excerpt: as §1

Assay [5] has the same target. Put plainly: SPR, Biacore 8K, steady state KD; biotinylated ASGPR1 on streptavidin, 2 mM CaCl2 (FIG. 1C).
Excerpt: as §1

T1 sequence (Q13018 other isoform, or with tags, fused parts or gaps): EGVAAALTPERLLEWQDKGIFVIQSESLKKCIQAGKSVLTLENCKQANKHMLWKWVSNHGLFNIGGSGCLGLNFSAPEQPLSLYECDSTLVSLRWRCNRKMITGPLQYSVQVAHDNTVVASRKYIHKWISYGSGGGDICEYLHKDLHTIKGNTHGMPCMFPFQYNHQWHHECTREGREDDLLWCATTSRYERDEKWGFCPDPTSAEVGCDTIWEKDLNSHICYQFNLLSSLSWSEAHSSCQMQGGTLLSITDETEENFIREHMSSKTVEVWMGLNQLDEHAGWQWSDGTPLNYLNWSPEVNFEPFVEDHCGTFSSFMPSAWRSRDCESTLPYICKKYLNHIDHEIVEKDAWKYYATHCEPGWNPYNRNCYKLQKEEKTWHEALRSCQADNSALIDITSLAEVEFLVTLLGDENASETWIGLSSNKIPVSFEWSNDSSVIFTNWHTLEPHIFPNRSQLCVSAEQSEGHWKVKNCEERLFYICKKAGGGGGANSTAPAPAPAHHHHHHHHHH

B1: biotinylated recombinant human ASGPR1 (Acro Biosystems) (receptor, UniProt P07306 62-291, looked up)
chain: QNSQLQEELRGLRETFSNFTASTEAQVKGLSTQGGNVGRKMKSLESQLEKQQKDLSEDHSSLLLHVKQFVSDLRSLSCQMAALQGNGSERTCCPVNWVEHERSCYWFSRSGKAWADADNYCRLEDAHLVVVTSWEEQKFVQHHIGPVNTWMGLHDQNGPWKWVDGTDYETGFKNWRPEQPDDWYGHGLGGGEDCAHFTDDGRWNDDVCQRPYRWVCETELDKASQEPPLL
modifications: biotinylated
notes: It was immobilized by streptavidin capture
As for B1, the association rate constant (kon) (commonly a measure of how fast the partners come together) was 421000 M⁻¹ s⁻¹ in assay [1] and 80900 M⁻¹ s⁻¹ in assay [3]. Besides, the dissociation constant Kd (commonly the equilibrium constant for the complex coming apart) in assay [2] is 7 nM; in assay [5], 1280 nM. Moreover, the off-rate (koff) – broadly, the first-order rate constant of dissociation – is 0.104 s⁻¹ in assay [3] and 0.00294 s⁻¹ in assay [4].
